Laboratory results: patent publication US20220227815A1, “COMPOSITIONS AND METHODS USEFUL IN TREATING BRAIN DISEASES” (University of Kansas, priority 2019, published 2022)

Tested on: EGR1, ARC, and MAPK1 mRNA transcripts
Assay: Fluorescence in situ hybridization of mRNA transcripts in APP/PS1 hippocampus CA1
Type: in vivo, transgenic APP/PS1 mice
Conditions: CA1 region of hippocampus; all three groups compared
Protocol: Coronal brain sections (10 μm thickness) were washed three times in PBS before mounting on gelatin-coated glass slides (Superfrost Plus, Thermo Fisher Scientific). Tissues were allowed to dry at RT and were then stored at −20° C. until use. Fluorescence in situ hybridization (FISH) was performed using Multiplex Reagent Kit V2 from RNAscope® Technology 2.0 (Advanced Cell Diagnostics (ACD), Hayward, Calif.). See Vasquez, J. J., Hussien, R., Aguilar-Rodriguez, B., Junger, H., Dobi, D., Henrich, T. J., Thanh, C., Gibson, E., Hogan, L. E., McCune, J., Hunt, P. W., Stoddart, C. A.,Laszik, Z. G., Elucidating the Burden of HIV in Tissues Using Multiplexed Immunofluorescence and In Situ Hybridization: Methods for the Single-Cell Phenotypic Characterization of Cells Harboring HIV In Situ. J Histochem Cytochem 2018; 66:427-46; Gershon, T. R., Crowther, A. J., Liu, H., Miller, C. R.,Deshmukh, M., Cerebellar granule neuron progenitors are the source of Hk2 in the postnatal cerebellum. Cancer Metab 2013; 1:15; and Smith, P. A., Schmid, C., Zurbruegg, S., Jivkov, M., Doelemeyer, A., Theil, D., Dubost, V., Beckmann, N., Fingolimod inhibits brain atrophy and promotes brain-derived neurotrophic factor in an animal model of multiple sclerosis. J Neuroimmunol 2018; 318:103-13. Mounted tissue sections were deparaffinized using xylene and serially dehydrated in 50%, 70%, 95%, and 100% ethanol for 5 min each. […]

B1: BDNF: recombinant brain-derived neurotrophic factor (13 kDa monomer), Peprotech (protein, UniProt P23560 19-247, looked up)
Neurotrophic factor BDNF …: APMKEANIRGQGGLAYPGVRTHGTLESVNGPKAGSRGLTSLADTFEHVIEELLDEDQKVRPNEENNKDADLYTSRVMLSSQVPLEPPLLFLLEEYKNYLDAANMSMRVRRHSDPARRGELSVCDSISEWVTAADKKTAVDMSGGTVTVLEKVPVSKGQLKQYFYETKCNPMGYTKEGCRGIDKRHWNSQCRTTQSYVRALTMDSKKRIGWRFIRIDTSCVCTLTIKRGR
- MAPK1 expression: no significant differences
